Results taken from IntAct's records for PubMed 21816275.

B1: Septum site-determining protein MinD (Escherichia coli (strain K12)), P0AEZ3 (parent)
chain: MARIIVVTSGKGGVGKTTSSAAIATGLAQKGKKTVVIDFDIGLRNLDLIMGCERRVVYDFVNVIQGDATLNQALIKDKRTENLYILPASQTRDKDALTREGVAKVLDDLKAMDFEFIVCDSPAGIETGALMALYFADEAIITTNPEVSSVRDSDRILGILASKSRRAENGEEPIKEHLLLTRYNPGRVSRGDMLSMEDVLEILRIKLVGVIPEDQSVLRASNQGEPVILDINADAGKAYADTVERLLGEERPFRFIEEEKKGFLKRLFGG

Variants of: B1
Settings: with mine_ecoli minE

| Variant | effect of a mutation on the interaction |
| --- | --- |
| D192Y | disrupting interaction |
| D198R | disrupting interaction |
| M193L | disrupting interaction |

Further lines, results first:

| effect of a mutation on the interaction | Variant |
| --- | --- |
| disrupting interaction | N222A |
| disrupting interaction | G224C |
